This note sets out measurements from the DeepSol protein solubility set.

This data set in a line: soluble on expression in E. coli; label from the status in PepcDB or PDB records.
Turning to “PGGPEEQWQRAIHERGEAVCPTCNVVTRKTLVGLKKHMEVCQKLQDALKCQHCRKQFKSKAGLNYHTMAEHSAKPSDAEASEGGE”, the “soluble on expression in E. coli” value is on record as “soluble”. In the case of “MTIHQHPHVTDRDAHFVGGGIASLAGAAFLVRDGNMPGENIHVYEKLDVVGGAMDGAGDPDEAYLIRGGRMFNYPAYECTWDLFETIPSLEDDSRSVKAVMDEFNETHPSYAKTRLMHEGERIDAGEYGLTRQHRQSIARLLLTPEPRLGDTRIEEWFDESFLETNFWYVWATIFAFQPWHSVAEVRRYMYRFLHEFPQLHTMEGIDRTKYNQYDSMILPLRRWLEDRGVSFEYGHEVTDMDIVPSRTGRTVERLYCETDSGTETVPVEPSDLVFVTNGSMTDGSSIGGMDEAPELNETGASWELWKSIAEDNPQFGNPSVFADNVTETKWESFTVTLHNTDLFDHIVDFTNEEPGNGLVTYLGSNWLLSTVVAAQPHFANQPDDVKVFWGYALFPDREGNYVEKPMSECTGREILQELCYHLQCEERLPEILDDVTCIPAMMPFITAHFQPREPGDRPDVVPDGSNNLAFLGQYAEQPRDVVFTVEYSVRSAMTAVYEMLDLDREVPPVSKHYRKPGVIADTVRAAYRLEHHHHHH” it was “not soluble”; in that of “MHHHHHHGSTKTNSEILEQLKQASDGLLFMSESEYPFEVFLWEGSAPPVTHEIVLQQTGHGQDAPFKVVDIDSFFSRATTPQDWYEDEENAVVAKFQKLLEVIKSNLKNPQVYRLGEVELDVYVIGETPAGNLAGISTKVVET”, “soluble”; in that of “MNIKKLAILGTLATTFSFEAFASTGMPKIEELTGDTRTACEVILCLSSAQGRGIKECQAPLRKYFSIRAKKWHKTLAKRRAFLDLCPAANENAKMSALTTAIQHQEYACDAGTLNSRTETRRNWVRRSSEDGGSFSRRLVRTQAYIPDFCKALYDHEFTEYKQIQKPKYVCDANKWYSQADWNRGFERVEVSRKWNHREDRYDIQYKDVPIKKDCWELEHHHHHH”, “not soluble”. For “MNEIIGKFAREGILIEDNAYFRLREMDDPASVSSELIVKIKSNGGKFTVLTSEMLDEFFEIDNPAEIKARGPLMVPAERDFDFEVISDTSNRSYTSGEIGDMIAYFNSRYSSLKNLLSKRPELKGHIPIADLRGGEDVVSIIGMVNDVRNTKNNHRIIELEDDTGEISVVVHNENHKLFEKSEKIVRDEVVGVHGTKKGRFVVASEIFHPGVPRIQEKEMDFSVAFISDVHIGSQTFLEDAFMKFVKWINGDFGSEEQRSLAADVKYLVVAGDIVDGIGIYPGQEKELLIRDIHEQYEEAARLFGDIRSDIKIVMIPGNHDSSRIAEPQPAIPEEYAKSLYSIRNIEFLSNPSLVSLDGVRTLIYHGRSFDDMAMSVNGLSHERSDLIMEELLEKRHLAPIYGERTPLASEIEDHLVIDEVPHVLHTGHVHINAYKKYKGVHLINSGTFQSQTEFQKIYNIVPTCGQVPVLNRGVMKLLEFSLEHHHHHH”, the “soluble on expression in E. coli” value is “not soluble”. In the case of “MSDLPRKAVTRTAKLAALPLGFAGRATWGLGKRIVGESAEIVGQQLQQRTAEQLFKVLGELKGGAMKFGQALSVFESALPEEVAGPYRAALTKLQEAAPPMPTRTVHSVLAERLGEDWQELFLEFEDKPAAAASIGQVHRGVWQDGREVAVKVQYPGAGEALLSDLNQLSRFARLLGPLVPGMDIKPLITELKDRVSEELDYDLEAQAQRTHAEVFDDDPDIVVPDVIHQCEQVLITEWIDGIPMSEIISNGTQEQRDRAGQLLAHFLFSGPARTGLLHADPHPGNFRLLPGGPRGEDDWRLGVLDFGTVDRLPGGLPEPIGEALRMTLDGEAEAVYEMLCAEGFVKESIELAPDAVLEYLLPIIEPARVDAFTFTRGWMRSQAARIGDPRSPAYQLAKQLNLPPAYLLIHRVTLSTIGVLCQLGATVRLRDELEEWLVGFVAEGEAEVEEGEEADEDVYETEGTAAEALEHHHHHH” it was “not soluble”.

For the sequence “NKDWRINGYVNFSRNENKITELPANMVQENYSPKNGAYAARAEVGRPIGSFYGYRYKGVYQNTDATYARDAEGNVMNDAKGRPIVMKNLTATCQPGDAMYEDINHDGVINQYDIVYLGNANPTLTGGAGLTVKYKQFSINTFFHGRFGQSVVNTARMNNESMHGNANQSTAVLRRWKNEGDITDIPRALYGEGFNYLGSDRFVEDTSFLRLKQLTLNYAFPKSICNKLGITSLTCFVTGYNLFTWSSYTGQDPEVNLPSRPTDLATDGATTPVSRRYTFGFNLSF”, the “soluble on expression in E. coli” value is reported as “not soluble”. The entry for “MPHPAPNAAAPRVHIIGAGMAGLACAVRLVSHGRAVSLHEAAGQAGGRCRSFVDASLDRLIDNGNHLLLSGNRAVNAFLATIGASDRLDGPERARFPFLDVETGERWCLTPSAGPVPWWLLRADRRIPGTRARDYLEGLKLARASDADRVADLLTPGTPLYRRFWAPLTVGVLNAAPEEAAAALLWPVIKETFGRGEAACRPRMARNGLSDSFVTPALAWLTARGAEIAFNHRLRAIEYGDGRPAALVFSEETPLRLGPADQVVLAVPPAVAAGLLPGLTVPEGSRCIVNAHFRLDHAPEGFADDFEGPLGVIGGTAEWLFVRGDVASVTVSAADALAALDPDEIAARIWRDVALALGLDAAARPPVRIIKEKRATFAQTPDQLCRRPPTRPPGYGLCLAGDWTHTGLPATIEGALRSGEAAADAALHWRFTLEHHHHHH” is “not soluble”; for “SVPQISQPHFLLDGLSSQPLFNDIAAGIPSITAYSKNGLKIEFTFERSNTNPSVTVITIQASNSTELDMTDFVFQAAVPKTFQLQLLSPSSSIVPAFNTGTITQVIKVLNPQKQQLRMRIKLTYNHKGSAMQDLAEVNNFPPQSWQ” it is “soluble”; for “AIAAQKISEAHEHIAKAEKYLKTSFMKWKPDYDSAASEYAKAAVAFKNAKQLEQAKDAYLQEAEAHANNRSLFHAAKAFEQAGMMLKDLQRMPEAVQYIEKASVMYVENGTPDTAAMALDRAGKLMEPLDLSKAVHLYQQAAAVFENEERLRQAAELIGKASRLLVRQQKFDEAAASLQKEKSMYKEMENYPTCYKKCIAQVLVQLHRADYVAAQKCVRESYSIPGFSGSEDCAALEDLLQAYDEQDEEQLLRVCRSPLVTYMDNDYAKLAISLKVPGGGGGKKKPSASASAQPQEEEDDEYAGGLC” it is “soluble”. In the case of “MGSDKIHHHHHHMTIATDSLKLITTVEQLKYYLIQAMKIEHATIPPYMTALYSIKPGKNLEAFHIIREVAVEEMLHLTLVANVYNAVGGSFASPVLTAPNFIPTYPSYLPTGSTDFKVGLTKFSKKTIETFRKIERSKDVEEGDPLVESRSLQEYLLEVVGCDPTKTFYSIGLFYAEIIRGLNALYKEKGPDLFCGDPRRQITPEYYYNGGGDIIPVTDLRSAMRALKVIQEQGEGSRSGTIYDAERELAHDYRFQQILLEKYYVIDKDDPTKSDQPNEPTGKSFNVDWNEVYPIKDNAKLSDYPEGSEVRTAALAFHSAYSEFLAKIEYAFDGHPEQLVPAVGGMFRLKEQANSLMRNPIPGNPGVNAAPIFKLDKR” it was “not soluble”. Regarding “MGSDKIHHHHHHMKAPEGIACGKRQLVVSDTGGGRLLSYSIENGSVRGGTEIKAEQVPYPTKVQLTSKGEILVIDGKLRRIAHFSPEGSFAGYLDLKGVPAPATIAPRGIRVDDKDNIHILDIFGARVIVTDAAGTFQSQMPFPEGYRFISDLAVSASGTTLLLDSVASRVYAAARGETAFKPLTDGMKEYLQFPTSIATDKQGKIFILDQTGNAVVTLGQDGSFQGRQLNIGWKNSFLHYPSQLCISEENDIDVVIADRNNNRIQVFRVVR”, the “soluble on expression in E. coli” value was “not soluble”. The entry for “MAPAPRFSAEEQERLIICAAIKAIEESSLLDFSMSAIAKLAGLSMGSVYKFVQCKEDVLIALATRMYQERQSVFKKVLALPLTTPERIIATSLLDFSKVQMYNFDNQLESIVNTEAMMKRCSERWLTQMIACGERCQTMFQQFLQNAADSGELTSGSRDIEEINLGTWSLSVGYFQTVRLHQCWHNDLDENIDGINDEENEKNTLVLAADNAHIRTMKRLVNTYDWQQKISDDDIEKVCLHLADAALR” is “not soluble”; for “MAHHHHHHMVFSTHGIRVVYNTANVDRSLYAVVHCSDGKYAEVSKDHLNRLKFIEKSSEEEDIEFDYPEAVLESLAQWTLKYGMDGVAVSSTVRPCIYRNVQHVLKDDWEREFFTTRLMNDLNIMHYLQTINAAEKYEMKGFHDFLCVCLSCKLRNEEDTELVHKIMGLEDFVEIGPSDLDEAACRYTWLDQAIKPTVRR” it is “not soluble”. For the sequence “MGSDKIHHHHHHMEAIQVASVKDNFVKTLEKIRKKHGVDIIALFAIRQSLAIHVINSADNPVSFSAGTIFNLTLTPLVEEFLFNVKTFENHPQKTRFALVENVQWELYIPVVFKEFPTGFVYVASKKKRDAEKTEGIIRDLQDFLKAHGLEYYFLEYSVVLDQLLTTVAILIDRLFSRVSRYTLNHIYNVAFWAEEIGKIVGLDEKRLAKLYLAGLLHDIGKVYIDERILNKEGRLTLQEYQEMKKHVDYSYNMVKDLMIWDIEDDVALWVVQHHEKFDGSGYPFGLKEEEITPEGRILKIADTLDAMLSPRSYRNPFPLDDVIKEIERLRGKDFDPLLADLTVDLLREKKESLGLFEGRILPATLIAGEGIHEGILRKNDGYHVFISDYV”, the “soluble on expression in E. coli” value is reported as “not soluble”. Turning to “MGSDKIHHHHHHMMFKQVQQDFMDYIRDPNQPLPKGIEPRRMKIYRDLFFNNLDGFVSSAFPVLKSLYASDDWQLLVQAFFVNHDCQSPIFMDIAAEFLQFLQTEYQTKESDPGFMLELAHYEWLELVVAVAQEDEQLMTLSQDEVKTAKMCLNSTARVAQYHFDVQHISVDYQPVEPTPQGQFFCVYRDNADEVAFLQLSPLSAQVLAYLEQSQQSTLLELCHWLAGLYPNMATEQLNQGAFGLLAQLADKGIVKTRA”, the “soluble on expression in E. coli” value is recorded as “not soluble”. In the case of “RRQHQHLLESLVHSTAKQQGDFTKTAELATELLCQNLAVSLVSIWIFSADQGTQSLVAQFGSMALQDTYRPSLLHTVPRYLNELKNYRHIDAGNTLIDPRLTELVDSYFIPRQILSSLDVGIRINGHLEGVLCIERAQVTHHWHDSEIHLACQMADQLALTLATKHAYDKEERLSLFRCAIEQSRQMSM” it was “not soluble”. The entry for “MSLHDVRVYHVQQPMRVGFGHPAATRTTSESVVLELDISGCVGLGECAPRSYVTGETCVTVCDALRSLPLARIIDELLSESPNDVLYRIKRLGIEAAFDFTAANNVVCIVELAILDWIGKRTRVSLDAMLRNGASLAESSAPIKISQVLDQNLTVDDFLRERGPFHFVKIKAHRDRAKDLETVTEIRRAIGDDTPIVIDANMSWSLIEAVEHVRKLREAGLTMVEEPFSKRSWTELHELRVQTGISIMLDESVSTLDDLRRAIGSDSCDAVNVRVSKCGGVLRSIEMIELAKSFGIQFQIGVQVAECGPLIQAGRLLASLHRDAIAVEGGQADRFFDSMIVSPDLSFDRARSTVPPPAGFGLGLSTSTEISKYLAFGYSRSADEWTATSHYTEAEGHHHHHH” is “soluble”; for “MSLQVEGLSINLATIREQCGFAEAVDVCLKHGITAIAPWRDQVAAIGLEEASRIVRSNGLKLTGLCRGGFFPAPDAAGREKAIDDNKRAVDEAAELGADCLVLVVGGLPGGSKNIDAARSMVLEGIAAVLPHARAAGVPLAIEPLHPMYAADRACVNTLGQALDICEALGPGVGAAIDVYHVWWDPDLNEQIARAGRMKAILAHHICDWLVPTKDMLTDRGMMGDGVIDLKAIRREVEAAGFHGAQEVEIFSADNWWKRPAEEVIATCVERYRSCCRDDEGHHHHHH” it is “soluble”.
